Experimental data published in the domain aggregation screens of Martell et al. (2025).

Assay: soluble fraction after stress (log2 fold change); higher = more stays soluble; pooled small domains, quantitative proteomics
Details: stress: pH 4
How it was run: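 How much of each domain stays soluble after acid stress, expressed as a fold change, is used to gauge aggregation propensity. Pooled custom libraries of small domains underwent pH 4 stress before high-throughput quantitative proteomics. A higher log2 value means more of the domain stayed soluble.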

Sequence | soluble fraction (log2)
HMGQTDTIIKTTTDLYYEMSTMSDDDKLVVAQTLRDVWMAVGRWSGKLSKKQREKVAEVKRVLGE | -0.5
HMGQVAKPPLKELGADPVTGKPMVLKDGRFGPYVTDGEYNASLRKDDDIETIGVERAAELLQIRREKGP | -0.0291
HMGQVGIPFSDFLAEVENGQVREVVIKGNDISGTFNDNRGFSTYAPNDPNLVEKLTKRGVVINAQPTE | 0.123
HMGQVSEAGELEVAADRVIAANPEAVTKYKSGNENILQFLVGQMMKETKGAANPQVAAEILRKKIV | 0.0296
HMGRELDLNQRVYDFIHDIADEVRTDEGTFSANQMMERFLFPGDLQSVPIGRLSGGERRRLYLLSVLMVKI | -1.15
HMGRFPSLTPVVIDALTAQYREHPGWTVQLHVDNLRVVLAANQTPLPSYPTIRRYLLAQGMRRQTRP | -0.176
HMGRLNMRRIRDVLRLKFGQGLSERQVAASLGLSKTSVGTYLHRARQAGLTWPLPQGLDDDGLELLLFP | 0.0376
HMGRMTRKDRALATDLYGRIVGNVDDFHEGRIDYETFSERQRGLWTTLDAAGPEVKRAVLADIRERL | 0.23
HMGRWQPSTSAKQHGESALLLERLLHLERLTVSEAFHVLTINHRLNLSLPEYRSLLAVVQLPK | -1.31
HMGRYDWIEQIDDPVLAERLKHLTEDDLELLTRYVFEDATQKELASQYGIGQQSVSKRLKKLKSFLTK | -0.683
HMGSATAPDLKGLTYEQAQTKAEDAGYNIEKGEDVYDNDVEKGKVASQDPEAGAEAKEGSVITVNISK | 0.168
HMGSFAADVGRMVRLGRAKRGISRRKLAADSGISERYLAQIEGGQGNPSVNVLKAIADAISVPVFELLPH | -0.197
HMGSFDDAPDQLRQSILQLLAEGPLPPSAITERLNISREDATEALQQLLDEQRIFAVNGMLQLQPG | -0.538
HMGSFTDKQIKQAFGVLNDPRFKQGNYDGAVAVINKIAPGLADHPSVANALKRANEATQDIAQQTQA | 0.161
HMGSGQIRYITENTVRVVYGTSKENEFVFQDGKPYPKDTPYHIHYTRNLEEYFMSGVEHDKNSKIILKVD | -0.792
HMGSGVNVTVNGKRMNLPLKDDHIIFVDIFNYIDFDLSKPKGSIVLKLNGRDAGYTDPIKDGDVIDIYWQ | -0.686
HMGSIDYLVGSRLRQYRRLRGYSLIEFSAMLHRSKSAISKYERGEVSIDLRTLNEMARLLDIPLSGLLL | -0.283
HMGSIEASFEEDVRRYLARKSMTTTEISKKMRQKRPDMSRDQLMTLLANAIKRIKPIKKKIKGTLYLSLE | 0.259
HMGSIMIIVLKENAPQQAAEKLMKEIRAKGLQIDVSKGTRKTVLGLVGDTSVIDMEHVQGYDYVDKVLRV | -0.674
HMGSKDLPFSTFMSEIDKGNITSVDIRGNEIQGTFANGTKFRTYSPNYPNLVEKLNGKGVSITAGPV | 0.211
HMGSKKITIYVSGEVKNPGIVTLNSDQRLASAVEKLGGVTENADMNNINLAMKLEDEMHYIIPKKGEK | 0.149
HMGSKQVSVPDVRNLDYERASQQLREAGFVVGDVLRIRDDRAPAGTVIAQSPAAPALVPENARVSLLVSSG | 0.00984
HMGSLAVVPSLTGKTLQEAQSKAADYGLALEIEGYVASTAVDYGRIVSQSPDAGFSVKSGSSVKVSVSAG | ≥ 0.43
HMGSLGRAIRSRREKMKVGLEELAAKTGLSESHISDIEEGRGFAPVGDILKIARALTIDPGELLK | 0.426
HMGSLGSLLKSVRNQRGLSRQQMAQSLNIGVRAIEQIEEGERKPDLELLNRYARGLMDPSVT | -0.138

Sequence | soluble fraction (log2)
HMGSLKEKIVLLEKLYQQNPSEEIKLLLINTYQLNHQYIQARKLFFTLTPEQKEKLPLASEFLIFL | -0.725
HMGSLNDQVMKYIDALPSAFNKRELDFLIERGVKEFALNGEYLEKAIINEYKLTADTYHRER | 0.129
HMGSLQPLLLAAIDALQTHIRSGLPFRVEERLAELDQFRTELQNGSVPPQRGVNRLWAFYEDEFRL | -0.386
HMGSLRSALDGIPGIGEQYQKRLLAQFGSVKAMRSASVEDFEAVRGIGRAKAQALYDALHAG | 0.13
HMGSLVVVPNLVGQNYDEVKLSTKYSDFEIVQKNTEYSEAPAGQIIKQDPEAGTKVKKHSTINVTVSK | -0.287
HMGSQELIQLGERIRQKRKDSHLTQETFAEKAGISVNTVSRIEGGQAAMSIEIFAKLVEILDADANELLG | -1.07
HMGSRAEAKEFLQTMLADGRQLATDMEEARQAHDIADRTLRRARKELNVQVYRDGNAWYWELPTPIK | -0.567
HMGSREVPFSDFISKVESGSVLEVVLRGRQVEGLTDANERFQTQIPNYPALFEILERNQVRTRVEPT | -0.814
HMGSTATVIASRLNMRASASTTGALLTKIPNGATVTVLGTTGAWSHIRYGSYTGYVMSQYLRING | -0.211
HMGSTVRIVVPAADIPAYKDIQPSDLEYREVPKDEISEDAVTDPQEVINKYSTSPLYAGWPINKNIIET | -0.202
HMGSYANAWQLAEHAAKDMLGEVIYLLDGKEVHAGILETMSAESIKTASAENVDGKVVIRLVSK | -0.371
HMGSYIGEAKAKEIALSHAGVSASQATFVRSQFEYDDGRAVYDVDFWSGNKEYDYEIDAKSGTIVSYDFD | 0.0669
HMGSYVVQLGAFAIRANAEKLAREVDGSIATSGRFSLVRVGPFTSRGQAEQALAKLRARGYSDALIHSL | -0.234
HMGTDFRPVFQYVDELVRAGEFTNLKGMIYFTDGRGIFPEKKPDYDAAFVFLDDGYDPPDVPVWAIKLVL | -0.709
HMGTGSSAERITMLNSILERQIQAMEIQGNPDAPIVNIQKIYTTLQRIVETAGLKDVDQFFMNPLQGQKEM | -0.407
HMGTIRAPMPGTILKINVVDGDSVTKGDVLLILESMKMENSITSPKTGSVTSVYVSEGDPVQHGETLIDL | -1.22
HMGTISKRINPSGTTVYRAVIRIRKNGYPNFTESRTFSKKSMAAEWVKRREAEIELNPDILFG | -0.0195
HMGTLSLLVQKLMAVGLEGAKASEIVERFDRERIERQINALPSRKIKSSRTGFLIRAIELDIPVE | -1.31
HMGTPKMPLSLYLSMVENLRSLKRFALVNQQVKDGFVFFNDVAGIKRLQELLNYHNTGEKPSE | -0.287
HMGTRIQAVMEDIQSRIAARTYLPGTRLPSVRAQAQAMQVSVSTVVEAYERLAAEGVIASRPGSGFYVAGP | ≥ 0.43
HMGTRPAYAADAPNPQKRFIYHRIVDQLRNKATGAPISYRAIAAETGVSVQTVINIKNRMNQMLSEK | ≥ 0.43
HMGTRPIQIASFSKEENAKRAVEALAKIGITAQPQKSGSATKAVWGVVANGDADLLAKIKAAGFADAYFL | 0.179
HMGTRTILGIDPGSRKTGFGIIRLDGSRTHYVSSGVIRIPDTALPERLKIIFASLNEIIQQFQPQEV | 0.107
HMGTRYVEFVIPGTGNHEVRIVSSNGSRQNVEVAGTYPGGARLRTKVDNGVRRVSFYVDNRLVEEKQ | -0.0183
HMGTSFKITFYKDAFQVDDGPIRMLNDPANQKFVDEVSQGYAPKELIGQGGKAPEIDIIDKRSENAPT | -0.0971

Sequence | soluble fraction (log2)
HMGTVFTDIMTDIASGKFPNVFPDSLEAQIQKNVTMAPDKLSATLQYGDKSVILPTTKGKEAAEAAVKAA | -0.648
HMGTYTSALDGIKGLGKKRKMLLLNTYKSIDVLKSVPLTELSQLIPREVAEALLTKLNRVDD | 0.116
HMGVDASVDSKLDLLSQVLDSDQVKEQLPEAVLEQLAQNLDRWRSLHEESELQDDDIAELNRLLGLFGLG | -1.67
HMGVEKHLRITGTSTVSWKDAIVQAVAEASKTIDYLSNVKIIEQRARIDGKKLVEYFVDLDLSFVID | -0.38
HMGVGITAPLAGNIFKIVVQPGDVVASGDVVLVLEAMKMETEIRAASGGTVSQVLVREGDAVDAGHTLITL | -1.49
HMGVGVTAPLAGNIFKIVKQPGDVVASGDVVLILEAMKMETEIRAAAGGTVKQVLVREGDAVDAGHTLMTL | -1.59
HMGVHSVVPDIKNKHYGEAKAILAANGLSIEISDSIYDRSVAPGTVVESWPKAGAIVKGDRAVFVTLTAF | -1.17
HMGVMTGAEFVGNTVASVERNLIIDTLKHTMGNRTTAANILGISIRTLRNKLKQYQNEGFDIPE | 0.185
HMGVPELHKGEIVQAVVEKVLGEGLLRVNLKGMTVEAATSLRLNPGQQLLLRSEGIENGRQVLR | 0.042
HMGVQKGKDNALAVQQWIAERDATGDFGEYERRGIINRSALFDELGIPRSSMGSNDQIRQMIEAADVRWF | -0.663
HMGVREIIVQFLEQFDKPKSVQEIVEYVLRYRNTTENSIRSTMYSGSQFRQFDNGYFGLSDKSYPNEYIYA | -1.25
HMGVRLAPEVDRIPYGQMHPNLKKVKDLYEASYKAYVQALSSGNQALAKEKLEEFQSTKARYQRALSAYT | 0.195
HMGVRVEVDAVTPPGAMASGSVVFSDGESKKWSVDQFGRLAMTGGAPDYKPSDQDVMEFQQQLEQSL | -0.57
HMGVSAGQVRGLIRNLIAGEDKSKPLSDLALERELEKREIRISRRTVAKYRAELGIPNSDQRRYLP | 0.0779
HMGVSLKEIQENLSLIDDAAQKLASGQGTVDDAVGMGNAGKDIYDNIEGYVSSPKEFINGVLSSV | -0.823
HMGVSVNVQPAILDWAMQKAQMGNAGSSVIEMIAKWISGEKAPTFNQIEDVSKKISIPFGFFFLKEPPIE | -1.21
HMGVTGYPNPTREHITWDDARRIEVWNAYGVPVADLRFARGVLDVAGWPVGTYVARIDGGRSVRFVVI | -0.663
HMGVTVDEVHRNFESGMNVVHKKFGAGVVDSFDEGKIRINFDGVIKVFIADVLINSGMLESVSYTH | -0.922
HMGWEDLVGKTAVVKVALAPVGMVFFRGEFWSAISETGRIEPGEEVTISRIDGLKLYVTKKRIM | ≥ 0.43
HMGWEPTPVLVAARDISGGTVLDQDMLRVEAIPSRLVTPSIVRSDLLASVQDAKLLLPMKQGDLLNFNMLQ | -0.49
HMGWVMLVIMSRGASEAQINAVVEKIRAAGLTEHLSKGIERTIIGAIGEERKLEPEVFELLPGVEQALHIV | -0.713
HMGYDSYDADTIPKLKIGSIVEHPKFGEGSIISKAGAEVTIAFKIKGVKKINLEYTSIKVLK | 0.117
HMGYGEQEQEAQKYLALHALMSQDPTLAKMYQAPNQYKLMSHVMEQNGIKNVNDYLTDPQQLP | -0.161
HMGYKDIDKLSGVDLAIYRFIVEHDEQIPYMRVRELARGAHVSNSSVMRFIRKIGYDSFPEFKVSLRS | -0.322
HMGYPGLGSIGSKPLGDLLFQSKLFVKTKREFAEFKMANNNIVWGRRTQYLVRNYPLSVMEVFL | -0.348
